Assay results taken from PMC7319273 (Science (New York, N.y.), 2020).

Legend:
[1] = target: T1, SARS-CoV-2 Spike protein extracellular domain (S-ECD), as used in ELISA and BLI (SARS-CoV-2, Wuhan-Hu-1 (P0DTC2)); test: cell-based or functional assay
[2] = target: T1, SARS-CoV-2 Spike protein extracellular …; test: BLI; settings: both partners purified

B1: 0304-3H3 (human monoclonal antibody) (antibody, V domains shown)
VH: EVQLVESGPGLVKPSETLSLTCTASGGSISTYYWSWIRQPPGKGLEWIGYIYYSGSTNYNPSLKSRVTISVDTSKNQFSLKLSSVTAADTAVYYCARDRIAPVGKFFGWYFDLWGRGTLVTVSS
VL: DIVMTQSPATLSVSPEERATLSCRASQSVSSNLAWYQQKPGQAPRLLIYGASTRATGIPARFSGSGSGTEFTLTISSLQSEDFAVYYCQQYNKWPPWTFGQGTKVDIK
notes: also called mAb 0304-3H3
In the case of B1, the “neutralization of authentic SARS-CoV-2 in Vero-E6 cells, EC50” value [1] is reported as 0.04 µg/mL and the Kd [2] is reported as under 2.14 nM.

B2: 1M-1D2 (human monoclonal antibody) (antibody, V domains shown)
VH: QVQLVESGGGLVQPGGSLRLSCAASGFTFSSYAMHWVRQAPGKGLEYVSAISGNGGSTYYAKSVKGRFTISRDNSKNTLYLQMGSLRAEDMAVYYCARGAEYYDFWSGYYSAYFDYWGQGTLVTVSS
VL: QAVVTQPPSASGTPGQRVTISCSGSSSNIGSNYVYWYQQLPGTAPKLLIYNNNQRPSGVPDRFSGSKSGTSASLAISGLRSEDEADYYCAAWDDSLIYVLFGGGTKLTVL
With B2 the “neutralization of authentic SARS-CoV-2 in Vero-E6 cells, EC50” value [1] was 28 µg/mL and the Kd [2] was under 2.14 nM.

B3: 9A1 (human monoclonal antibody) (antibody, V domains shown)
VH: EVQLLESGGGVVQPGRSLRLSCVVSGFTFNNYGMHWVRQAPGKGLEWVAVISYEGSVKYYGDHVDGRFTISRDPFKNTLYLHMNNLRPDDTAVYYCAKVSAIFWLGQGLSPIDVWGQGTTVTVSS
VL: DIVMTQSPATLSASPGERVTLSCRASQNIRNNLAWYQQKPGQAPRLLIHGASTRAAGAPARFSGSGSDTQFTLTVSSLQSEDFAVYYCHQYSKWPVTFGGGTKVDIK
notes: also called mAb 9A1
Work on B3 yielded a Kd [2] of under 2.14 nM.

B4: 2M-10B11 (human monoclonal antibody) (antibody, V domains shown)
VH: EVQLVESGGGLVQPGGSLRLSCAASGFTVSSNYMSWVRQAPGKGLEWVSVIYSGGSTYYADSVKGRFTISRDNSKNTLYLQMNSLRAEDTAVYYCARATWLRGVMDVWGQGTTVTVSS
VL: QSALTQPHSVSESPGKTVTISCTGSSGSIASNYVQWYQQRPGSAPTTVIYEDNQRPSGVPDRFSGSIDSSSNSASLTISGLKTEDEADYYCQSYDSSNHWVFGGGTKLTVL
notes: ELISA group 2B; also called mAb 2M-10B11
B4 gave a Kd [2] of under 2.14 nM.
